Test results: patent publication US7196181B1, “Sequences encoding novel human thyroid peroxidase proteins and polypeptides” (Quest Diagnostics Investments, Inc., priority 1989, dated 2007)
Where “and” joins values, the source holds several entries; their conditions need not be identical. Identical values can stand only once.

Legend:
CHO-TPO12b cells = experiment: Radiolabeled D-glucosamine incorporation into proteins, control experiment; type: cell-based, Chinese hamster; settings: tunicamycin treatment under similar conditions (0.5 μg/ml, 20 hours); mean±S.D.; n=3
Description: Human TPO contains 5 potential glycosylation sites. It was therefore examined whether carbohydrate moieties are important in the conformation of the epitope(s) in the human TPO antigen(s) recognized by Hashimoto's sera. Western blot analyses were performed on proteins extracted from CHO-TPO12b cells pre-cultured for 20 hours in 0.5 μg/ml tunicamycin, an inhibitor of protein glycosylation. This length of time was chosen because it was the longest tolerated without evidence of significant toxicity (i.e., cell loss). […] In a control experiment, tunicamycin treatment under similar conditions decreased radiolabeled D-glucosamine incorporation into proteins by 56.3±4.8% (mean±S.D.; n=3).

[1] = molecular target: secreted truncated recombinant human thyroid peroxidase (hTPO-M1) (human) (UniProt P07202); experiment: competition with serum TPO autoantibodies (5 sera); Protein A precipitation
[2] = molecular target: secreted truncated recombinant human thyroid peroxidase (hTPO-M1) (human) (UniProt P07202); experiment: competition ELISA on secreted TPO; competitor: serum lambda TPO autoantibodies (4 sera)
[3] = molecular target: secreted truncated recombinant human thyroid peroxidase (hTPO-M1) (human) (UniProt P07202); experiment: Scatchard analysis; unlabeled TPO competing with 125I-TPO for the Fab
[4] = molecular target: secreted truncated recombinant human thyroid peroxidase (hTPO-M1) (human) (UniProt P07202); experiment: competition ELISA on secreted TPO; competitor: serum IgG1 TPO autoantibody, first patient; parameters: concentration or dose not given beside the values
[5] = molecular target: secreted truncated recombinant human thyroid peroxidase (hTPO-M1) (human) (UniProt P07202); experiment: Scatchard analysis, 125I-TPO
[6] = molecular target: secreted truncated recombinant human thyroid peroxidase (hTPO-M1) (human) (UniProt P07202); experiment: competition ELISA on secreted TPO; competitor: serum IgG2 TPO autoantibody, third patient; parameters: concentration or dose not given beside the values
[7] = molecular target: secreted truncated recombinant human thyroid peroxidase (hTPO-M1) (human) (UniProt P07202); experiment: confluent plaque lysis assay; competition of unlabeled TPO with 125I-TPO, densitometry
[8] = molecular target: secreted truncated recombinant human thyroid peroxidase (hTPO-M1) (human) (UniProt P07202); experiment: competition ELISA on secreted TPO; competitor: serum IgG4 TPO autoantibody, first patient; parameters: concentration or dose not given beside the values
[9] = molecular target: secreted truncated recombinant human thyroid peroxidase (hTPO-M1) (human) (UniProt P07202); experiment: competition ELISA on secreted TPO; competitor: serum IgG1 TPO autoantibody, second patient; parameters: concentration or dose not given beside the values
[10] = molecular target: secreted truncated recombinant human thyroid peroxidase (hTPO-M1) (human) (UniProt P07202); experiment: competition ELISA on secreted TPO; competitor: serum IgG4 TPO autoantibody, second patient; parameters: concentration or dose not given beside the values
[11] = molecular target: secreted truncated recombinant human thyroid peroxidase (hTPO-M1) (human) (UniProt P07202); experiment: Scatchard analysis; 125I-TPO with unlabeled TPO, anti-kappa/Sac-cel precipitation
[12] = molecular target: secreted truncated recombinant human thyroid peroxidase (hTPO-M1) (human) (UniProt P07202); experiment: competition with serum TPO autoantibodies (11 sera); SP1.2 10^-10 to 10^-7 M; Protein A precipitation
[13] = molecular target: T1, recombinant human thyroid peroxidase (hTPO), full-length wild-type, expressed in CHO cells (human, UniProt P07202 19-933); experiment: lectin affinity chromatography of 35S-labeled CHO-TPO extract, then immunoprecipitation
T1 construct: Used on intact CHO cells (FACS), as CHO microsomes (ELISA) and as non-denatured detergent extracts (non-reducing Western blot, immunoprecipitation); also called human TPO; thyroid microsomal antigen
T1 sequence: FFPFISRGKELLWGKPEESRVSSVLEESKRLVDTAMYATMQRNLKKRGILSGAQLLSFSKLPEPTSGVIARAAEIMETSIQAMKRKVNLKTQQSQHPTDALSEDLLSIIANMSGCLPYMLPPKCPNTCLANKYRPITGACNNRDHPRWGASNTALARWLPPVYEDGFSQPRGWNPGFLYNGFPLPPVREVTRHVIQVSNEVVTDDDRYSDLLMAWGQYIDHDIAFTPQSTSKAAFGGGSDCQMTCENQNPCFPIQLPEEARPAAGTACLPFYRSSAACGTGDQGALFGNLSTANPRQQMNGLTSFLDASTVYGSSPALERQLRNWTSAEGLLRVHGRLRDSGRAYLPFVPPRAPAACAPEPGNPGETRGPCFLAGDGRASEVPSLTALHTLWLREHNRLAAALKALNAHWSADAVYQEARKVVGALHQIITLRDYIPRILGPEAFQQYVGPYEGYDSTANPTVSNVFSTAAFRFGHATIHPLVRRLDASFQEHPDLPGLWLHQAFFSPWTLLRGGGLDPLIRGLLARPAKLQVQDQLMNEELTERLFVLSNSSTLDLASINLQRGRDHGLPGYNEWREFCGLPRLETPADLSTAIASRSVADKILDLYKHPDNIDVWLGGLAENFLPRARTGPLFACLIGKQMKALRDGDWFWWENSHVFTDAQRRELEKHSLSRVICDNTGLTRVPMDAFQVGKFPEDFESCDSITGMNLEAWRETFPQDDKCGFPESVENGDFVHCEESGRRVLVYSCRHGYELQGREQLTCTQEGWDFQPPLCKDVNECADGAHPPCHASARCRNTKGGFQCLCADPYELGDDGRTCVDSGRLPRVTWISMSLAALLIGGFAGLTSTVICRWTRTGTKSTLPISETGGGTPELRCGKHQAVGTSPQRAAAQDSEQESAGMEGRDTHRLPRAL
Description: After incubation overnight at 4° C., 150 µl of IgG-Sorb were added, and the tubes rotated end over end for 2–4 hours at room temperature. The IgG-Sorb was recovered by centrifugation for 5 minutes at 10,000× g, washed 5 times with 1 ml of immunoprecipitation buffer, and then once with 10 mM Tris, pH 7.5, 2 mM EDTA and 0.5% Na dodecylsufate. Finally, the pellet was resuspended in Laemmli sample buffer (31), with 50 mM dithiothreitol (DTT), boiled for 3 minutes, and applied to 6% polyacrylamide gels. […] Autoradiography was performed with Kodak XAR-5 film.
After application to the columns, the unbound proteins were removed by washing with 50 ml of the foregoing Buffer A's. […] Fractions of 0.5 ml were collected and counted for radioactivity in a liquid scintillation counter.

Thyroid Peroxidase (TPO) = experiment: Assay of human TPO enzymatic activity (guaiacol and iodide peroxidase); type: biochemical; settings: conditioned medium of transfected CHO cells, collected after 3 days of culture
Description: […] P., et al., Endocrinol. 116:1493-1500 (1985)). In later experiments, a more rapid method was used. Cells were suspended with a rubber scraper in 1.5 ml calcium-magnesium free Dulbecco's phosphate-buffered saline and protein determined on a 5 ul aliquot. […] […] One guaiacol unit is defined as a _A470 of 1.0 per minute which is equivalent to 150 nmols guaiacol oxidized per minute (Chance, B., et al., In Methods in Enzymology (Colonic. S. P., et al.), Academic Press, New York 2:164-[…] (1955)). One unit of iodide peroxidase is defined as a _A353 of 1.0 per minute which corresponds to 43 nmols I3-formed per minute (Magnusson, R. P., et al., J. Biol. Chem. 259:13783-13790 (1984)).

Question: How did the “Decrease of radiolabeled D-glucosamine incorporation into proteins” value (CHO-TPO12b cells) turn out when tunicamycin was run?
Answer: 56.3±4.8%

Question: How did the mean % inhibition of serum autoantibody binding to 125I-TPO [1] turn out when human TPO-specific Fab fragment SP1.2 was run?
Answer: 55%

Question: And the % inhibition [2]?
Answer: 12 to 18%

Question: What about the Kd [3] of the same molecule?
Answer: 0.083 nM

Question: And the % inhibition [4]?
Answer: 14%

Question: And the Kd [5]?
Answer: 0.06 nM and 0.08 nM

Question: And the % inhibition [6]?
Answer: 29%

Question: And the Kd [7]?
Answer: 1 nM

Question: And the % inhibition [8]?
Answer: 77%

Question: What about the % inhibition [9] of the same molecule?
Answer: 62%

Question: What about the % inhibition [10] of the same molecule?
Answer: 13%

Question: What about the Kd [11] of the same molecule?
Answer: 0.08 nM

Question: And the maximum % inhibition of serum autoantibody binding to 125I-TPO [12]?
Answer: 36 to 72%

B1: peanut agglutinin (agarose-bound lectin) (other, UniProt P02872 24-259, looked up)
chain: AETVSFNFNSFSEGNPAINFQGDVTVLSNGNIQLTNLNKVNSVGRVLYAMPVRIWSSATGNVASFLTSFSFEMKDIKDYDPADGIIFFIAPEDTQIPAGSIGGGTLGVSDTKGAGHFVGVEFDTYSNSEYNDPPTDHVGIDVNSVDSVKTVPWNSVSGAVVKVTVIYDSSTKTLSVAVTNDNGDITTIAQVVDLKAKLPERVKFGFSASGSLGGRQIHLIRSWSFTSTLITTTRRS
notes: also called PNA
Question: Does B1 bind [13]?
Answer: no binding

B2: Ulex europaeus lectin (agarose-bound) (other)
chain: SDDLSFKFKNFSQNGKDLSFQGDASVIETGVLQLNKVGNNLPDETGGIARYIAPIHIWNCNTGEVASFITSFSFFMETSANPKAATDGLTFFLAPPDSPLRRAGGYFGLFEDTKDNDSSYQTVAVEFDTIGSPVNFDDPGFPHIGIDVNRVKSINAERWNKRYGLNNVANVEIIYEASSKTLTASLTYPSDQTSISVTSIVDLKEILPEWVSVGFSGGTYIGRQATHEVLNWYFTSNLINTNS
modifications: Lectin immobilised on agarose beads. The native lectin is a glycosylated homodimer; one subunit is given.
notes: also called UEA-F
Question: Does B2 bind [13]?
Answer: no binding

B3: mutated form of hTPO: truncated, secreted recombinant human TPO (848 amino acids) from CHO-TPO-M1-K1 cells (protein)
chain: FFPFISRGKELLWGKPEESRVSSVLEESKRLVDTAMYATMQRNLKKRGILSGAQLLSFSKLPEPTSGVIARAAEIMETSIQAMKRKVNLKTQQSQHPTDALSEDLLSIIANMSGCLPYMLPPKCPNTCLANKYRPITGACNNRDHPRWGASNTALARWLPPVYEDGFSQPRGWNPGFLYNGFPLPPVREVTRHVIQVSNEVVTDDDRYSDLLMAWGQYIDHDIAFTPQSTSKAAFGGGSDCQMTCENQNPCFPIQLPEEARPAAGTACLPFYRSSAACGTGDQGALFGNLSTANPRQQMNGLTSFLDASTVYGSSPALERQLRNWTSAEGLLRVHGRLRDSGRAYLPFVPPRAPAACAPEPGNPGETRGPCFLAGDGRASEVPSLTALHTLWLREHNRLAAALKALNAHWSADAVYQEARKVVGALHQIITLRDYIPRILGPEAFQQYVGPYEGYDSTANPTVSNVFSTAAFRFGHATIHPLVRRLDASFQEHPDLPGLWLHQAFFSPWTLLRGGGLDPLIRGLLARPAKLQVQDQLMNEELTERLFVLSNSSTLDLASINLQRGRDHGLPGYNEWREFCGLPRLETPADLSTAIASRSVADKILDLYKHPDNIDVWLGGLAENFLPRARTGPLFACLIGKQMKALRDGDWFWWENSHVFTDAQRRELEKHSLSRVICDNTGLTRVPMDAFQVGKFPEDFESCDSITGMNLEAWRETFPQDDKCGFPESVENGDFVHCEESGRRVLVYSCRHGYELQGREQLTCTQEGWDFQPPLCKDVNECADGAHPPCHASARCRNTKGGFQCLCADPYELGDDGRTCVDSGRLPRVT
Question: For B3, which “TPO activity in culture medium” value (Thyroid Peroxidase (TPO)) is on record?
Answer: 1.0 guaiacol U/10 ml medium

B4: wild-type hTPO: full-length membrane-associated recombinant human TPO expressed in CHO cells (protein, UniProt P07202 1-933, looked up)
chain: MRALAVLSVTLVMACTEAFFPFISRGKELLWGKPEESRVSSVLEESKRLVDTAMYATMQRNLKKRGILSPAQLLSFSKLPEPTSGVIARAAEIMETSIQAMKRKVNLKTQQSQHPTDALSEDLLSIIANMSGCLPYMLPPKCPNTCLANKYRPITGACNNRDHPRWGASNTALARWLPPVYEDGFSQPRGWNPGFLYNGFPLPPVREVTRHVIQVSNEVVTDDDRYSDLLMAWGQYIDHDIAFTPQSTSKAAFGGGADCQMTCENQNPCFPIQLPEEARPAAGTACLPFYRSSAACGTGDQGALFGNLSTANPRQQMNGLTSFLDASTVYGSSPALERQLRNWTSAEGLLRVHARLRDSGRAYLPFVPPRAPAACAPEPGIPGETRGPCFLAGDGRASEVPSLTALHTLWLREHNRLAAALKALNAHWSADAVYQEARKVVGALHQIITLRDYIPRILGPEAFQQYVGPYEGYDSTANPTVSNVFSTAAFRFGHATIHPLVRRLDASFQEHPDLPGLWLHQAFFSPWTLLRGGGLDPLIRGLLARPAKLQVQDQLMNEELTERLFVLSNSSTLDLASINLQRGRDHGLPGYNEWREFCGLPRLETPADLSTAIASRSVADKILDLYKHPDNIDVWLGGLAENFLPRARTGPLFACLIGKQMKALRDGDWFWWENSHVFTDAQRRELEKHSLSRVICDNTGLTRVPMDAFQVGKFPEDFESCDSITGMNLEAWRETFPQDDKCGFPESVENGDFVHCEESGRRVLVYSCRHGYELQGREQLTCTQEGWDFQPPLCKDVNECADGAHPPCHASARCRNTKGGFQCLCADPYELGDDGRTCVDSGRLPRVTWISMSLAALLIGGFAGLTSTVICRWTRTGTKSTLPISETGGGTPELRCGKHQAVGTSPQRAAAQDSEQESAGMEGRDTHRLPRAL
modifications: full-length
notes: full-length membrane-associated recombinant human TPO expressed in CHO cells
Question: With B4 as the molecule, how does the “TPO activity in culture medium” value (Thyroid Peroxidase (TPO)) read?
Answer: no detectable enzymatic activity
